Literature values as cited in patent US9925277B2, “Polynucleotide compositions containing amino acids” (ModernaTX, Inc., priority 2013, dated 2018).

Target: Factor IX (Homo sapiens, UniProt P00740, R384L)
Details: mutation at position R338L

Factor IX, sequence (P00740 47-461 R384L): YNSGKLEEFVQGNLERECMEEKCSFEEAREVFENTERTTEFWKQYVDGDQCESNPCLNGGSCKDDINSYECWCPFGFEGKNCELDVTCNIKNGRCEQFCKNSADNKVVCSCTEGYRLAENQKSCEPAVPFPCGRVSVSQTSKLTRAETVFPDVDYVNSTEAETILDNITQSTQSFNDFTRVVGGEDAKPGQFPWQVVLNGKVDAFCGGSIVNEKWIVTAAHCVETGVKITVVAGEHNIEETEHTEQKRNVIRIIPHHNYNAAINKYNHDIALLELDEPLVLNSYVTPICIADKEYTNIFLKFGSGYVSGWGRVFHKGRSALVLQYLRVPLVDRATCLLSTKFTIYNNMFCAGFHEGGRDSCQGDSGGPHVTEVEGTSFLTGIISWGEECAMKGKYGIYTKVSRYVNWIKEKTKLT

- increased activity of Factor IX protein: 10 fold
Substance: FIX Padua: Factor IX protein with mutation at position R338L, hyperactive naturally occurring variant
